Tested on: N#CCNC(=O)c1cnccc1C(F)(F)F
Assay: purified protein
Details: 37 °C, 10 min, pH of kinetics not stated, hydration to TFNG-AM

Substance	Km [mM]	Vmax [µmol/min/mg]
CnhA (Ensifer adhaerens)	5.07	9.55
PnhA (Ensifer adhaerens)	2.96	88.7

Reference: PMC8278588, “Biodegradation of flonicamid by Ensifer adhaerens CGMCC 6315 and enzymatic characterization of the nitrile hydratases involved” (Microbial Cell Factories, 2021)
